Article PMC5740674 (Proceedings of the National Academy of Sciences of the …, 2017)
Numbering of substitutions follows the chain as printed. Names may count otherwise. Square brackets hold non-standard residues; d marks the D form. Ends that are not written are not given here. pT = C[C@@H](OP(=O)(O)O)[C@H](N)C(=O)O

T1: GST-Cnp3(fl), full-length Cnp3 (S. pombe, UniProt Q9USR9 1-643)
T1 sequence (looked up): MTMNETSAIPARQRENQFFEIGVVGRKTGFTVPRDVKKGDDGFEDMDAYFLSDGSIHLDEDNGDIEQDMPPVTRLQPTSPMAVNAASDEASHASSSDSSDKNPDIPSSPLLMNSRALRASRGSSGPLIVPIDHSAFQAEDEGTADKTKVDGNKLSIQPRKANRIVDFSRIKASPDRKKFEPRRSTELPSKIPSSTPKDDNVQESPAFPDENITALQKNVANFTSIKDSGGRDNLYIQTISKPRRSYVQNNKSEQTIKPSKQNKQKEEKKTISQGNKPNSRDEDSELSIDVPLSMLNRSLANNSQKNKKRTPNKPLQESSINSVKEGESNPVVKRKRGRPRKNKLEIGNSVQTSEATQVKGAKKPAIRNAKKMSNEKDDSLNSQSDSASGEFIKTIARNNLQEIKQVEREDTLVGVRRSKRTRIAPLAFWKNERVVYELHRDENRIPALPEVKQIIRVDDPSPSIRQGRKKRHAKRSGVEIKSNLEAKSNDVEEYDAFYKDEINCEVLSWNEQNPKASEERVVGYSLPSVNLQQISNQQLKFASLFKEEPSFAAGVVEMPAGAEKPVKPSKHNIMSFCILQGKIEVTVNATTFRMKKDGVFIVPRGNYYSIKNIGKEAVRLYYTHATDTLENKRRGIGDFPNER

T2: Dsn1^DD–Nsl1 subcomplex (Dsn1 S68D S77D) (S. pombe, UniProt Q9UUB5 1-329; Q9P6M3 1-210, S68D | S77D)
T2 sequence (looked up) 1: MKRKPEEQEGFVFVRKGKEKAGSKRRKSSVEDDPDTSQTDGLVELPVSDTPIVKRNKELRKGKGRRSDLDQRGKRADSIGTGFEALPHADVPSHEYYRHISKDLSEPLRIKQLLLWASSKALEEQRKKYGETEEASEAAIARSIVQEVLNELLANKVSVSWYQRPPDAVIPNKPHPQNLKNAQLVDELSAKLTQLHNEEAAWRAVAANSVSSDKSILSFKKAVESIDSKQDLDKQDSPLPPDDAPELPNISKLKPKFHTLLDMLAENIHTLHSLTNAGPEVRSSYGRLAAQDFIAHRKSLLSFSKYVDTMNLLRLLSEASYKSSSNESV
T2 sequence (looked up) 2: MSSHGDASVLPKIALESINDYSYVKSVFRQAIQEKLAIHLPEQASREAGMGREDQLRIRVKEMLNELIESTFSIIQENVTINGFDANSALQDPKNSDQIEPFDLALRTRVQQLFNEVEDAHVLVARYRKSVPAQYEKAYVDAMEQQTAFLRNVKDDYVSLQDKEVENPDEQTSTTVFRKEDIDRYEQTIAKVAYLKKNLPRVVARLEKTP

T3: Mis12, full length (subunit of the Mis12–Nnf1 complex) (S. pombe, UniProt Q9Y738 1-259)
T3 sequence (looked up): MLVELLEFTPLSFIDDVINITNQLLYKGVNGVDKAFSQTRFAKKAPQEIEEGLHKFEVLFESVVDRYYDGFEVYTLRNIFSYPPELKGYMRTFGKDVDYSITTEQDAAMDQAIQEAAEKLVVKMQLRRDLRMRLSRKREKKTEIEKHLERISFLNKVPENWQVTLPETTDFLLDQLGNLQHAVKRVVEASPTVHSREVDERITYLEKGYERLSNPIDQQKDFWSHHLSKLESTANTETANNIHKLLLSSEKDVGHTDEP

B1: GST-Cnp3(1–60)^WT (domain or fragment, S. pombe, UniProt Q9USR9 1-60, looked up)
chain: MTMNETSAIPARQRENQFFEIGVVGRKTGFTVPRDVKKGDDGFEDMDAYFLSDGSIHLDE
B2: Mis12–Nnf1 complex (full-length Mis12 and full-length Nnf1) (complex, S. pombe)
chain 1: T3 sequence (looked up)
chain 2: MTSRKEQLDAFLSRTLSETIAHIPLEKFAQCFPSMKKGKVIAVIHQQLIEFFEKSCKQEYANLIKERDLNKKLDMLDECIHDAEFRKLHGESEVDISNKQPQEILKAHLYSHKRELLDKLNQDLLDIDKENEGLSTQIAGEEKATEDCISRMQSLIQKLEKTVYGMNEKNLAKEAHDTLNDLLPYIQNPSSTWTNALNEQGNIER
B3: GST-Cnp3(1–155)^T28A (domain or fragment, S. pombe, UniProt Q9USR9 1-155, looked up)
chain: MTMNETSAIPARQRENQFFEIGVVGRKAGFTVPRDVKKGDDGFEDMDAYFLSDGSIHLDEDNGDIEQDMPPVTRLQPTSPMAVNAASDEASHASSSDSSDKNPDIPSSPLLMNSRALRASRGSSGPLIVPIDHSAFQAEDEGTADKTKVDGNKLS
B4: Mis12–Nnf1 complex with Mis12 Y67A (complex, S. pombe)
chain 1: T3 sequence (looked up) with Y67A
chain 2: B2 chain 2
B5: GST-Cnp3(1–155) (domain or fragment, S. pombe, UniProt Q9USR9 1-155, looked up)
chain: B3 chain with A28T
B6: Mis12–Nnf1 complex with Mis12 R66A (complex, S. pombe)
chain 1: T3 sequence (looked up) with R66A
chain 2: B2 chain 2
B7: Nnf1, full length, untagged (subunit of the Mis12–Nnf1 complex) (natural protein, S. pombe, UniProt Q09858 1-205, looked up)
chain: B2 chain 2
B8: Dsn1–Nsl1 subcomplex (complex, S. pombe)
chain 1: T2 sequence (looked up) 1 with D68S, D77S
chain 2: T2 sequence (looked up) 2

What was measured:
[1] = target: B2; assay: ITC
[2] = target: B2; assay: pull-down
[3] = target: T1, GST-Cnp3(fl), full-length Cnp3; assay: pull-down
[4] = target: T2, Dsn1^DD–Nsl1 subcomplex (Dsn1 S68D S77D); assay: SEC-MALS
[5] = target: T3, Mis12, full length (subunit of the …); assay: SEC-MALS
[6] = target: B2; assay: SEC-MALS

Question: How did the Kd [1] turn out when RK[pT]GFTVPRDVKKGDDGFEDMDAYFLS (peptide, UniProt Q9USR9 26-52, looked up) [Cnp3(26–52)^pT28 peptide] was run?
Answer: 92 µM

Question: Does B1 bind [2]?
Answer: binds

Question: Does B2 bind [3]?
Answer: binds

Question: Does B2 bind [4]?
Answer: binds

Question: Does B3 bind [2]?
Answer: binds

Question: Does B4 bind [3]?
Answer: binds

Question: Does RKTGFTVPRDVKKGDDGFEDMDAYF (domain or fragment, S. pombe, UniProt Q9USR9 26-50, looked up) [GST-Cnp3(26–50)] bind [2]?
Answer: binds

Question: Does B5 bind [2]?
Answer: binds

Question: Does B6 bind [3]?
Answer: binds

Question: B7 was tested. Which “stoichiometry N” value [5] did it give?
Answer: 1

Question: With B8 as the binder, how does the “stoichiometry N” value [6] read?
Answer: 1

Question: With RKTGFTVPRDVKKGDDGFEDMDAYFLS (peptide, UniProt Q9USR9 26-52, looked up) [Cnp3(26–52) peptide] as the binder, how does the Kd [1] read?
Answer: 12.6 µM
